US20160347810A1 (AFASCI, published 2016)
No end group written: not given here.

B1: AFA-Peptide 3 (MP-3) (peptide)
peptide: H-NFVPTNVGPFAF-NH2
notes: Synthetic dodecapeptide NH2-N-F-V-P-T-N-V-G-P-F-A-F-CONH2; also called AFA-CGRP receptor antagonist peptide 3
B2: AFA-Peptide 10 (MP-10) (peptide)
peptide: H-NFAPTNVGPFAF-NH2
notes: Analog of AFA-peptide 3: NH2-N-F-A-P-T-N-V-G-P-F-A-F-CONH2
B3: AFA-Peptide 7 (MP-7) (peptide)
peptide: H-NFLPTNVGPFAF-NH2
notes: Analog of AFA-peptide 3: NH2-N-F-L-P-T-N-V-G-P-F-A-F-CONH2
B4: AFA-Peptide 8 (MP-8) (peptide)
peptide: H-NLVPTNVGPFAF-NH2
notes: Analog of AFA-peptide 3: NH2-N-L-V-P-T-N-V-G-P-F-A-F-CONH2
B5: AFA-Peptide 9 (MP-9) (peptide)
peptide: H-NFFPTNVGPFAF-NH2
notes: Analog of AFA-peptide 3: NH2-N-F-F-P-T-N-V-G-P-F-A-F-CONH2
B6: AFA-Peptide 6 (MP-6) (peptide)
peptide: H-NFIPTNVGPFAF-NH2
notes: Analog of AFA-peptide 3: NH2-N-F-I-P-T-N-V-G-P-F-A-F-CONH2

Each binder was assayed against T1, human calcitonin CGRP1 (CGRP1) membrane (human, UniProt Q16602 23-461; O60894 27-148) (assay: displacement of 0.24 nM [125I]-CGRP from human CGRP1 receptor membranes, filtration; Ki by Cheng-Prusoff; mean ± SD).
T1 construct: whole, on cells; Purchased membrane preparation (Perkin Elmer), homogenised in assay buffer; the receptor stood in membranes, not intact cells; also called CGRP receptors; CGRP receptor
Procedure: CGRP1 membrane was homogenized in the assay buffer (50 mM Tris-HCl pH 7.4, 5 mM MgCl₂, 0.5% BSA, 0.05% Tween20). […] After 1 h of incubation, at room temperature, samples were filtered, using a Tomtec cell harvester, through glass fiber filters that had been presoaked in 0.05% polyethyleneimine and washed with the cold Tris buffer (50 mM Tris-HCl pH7.4). Filters were counted on a betaplate reader (Wallac).

T1 sequence (Q16602 23-461, chain 1 of 2): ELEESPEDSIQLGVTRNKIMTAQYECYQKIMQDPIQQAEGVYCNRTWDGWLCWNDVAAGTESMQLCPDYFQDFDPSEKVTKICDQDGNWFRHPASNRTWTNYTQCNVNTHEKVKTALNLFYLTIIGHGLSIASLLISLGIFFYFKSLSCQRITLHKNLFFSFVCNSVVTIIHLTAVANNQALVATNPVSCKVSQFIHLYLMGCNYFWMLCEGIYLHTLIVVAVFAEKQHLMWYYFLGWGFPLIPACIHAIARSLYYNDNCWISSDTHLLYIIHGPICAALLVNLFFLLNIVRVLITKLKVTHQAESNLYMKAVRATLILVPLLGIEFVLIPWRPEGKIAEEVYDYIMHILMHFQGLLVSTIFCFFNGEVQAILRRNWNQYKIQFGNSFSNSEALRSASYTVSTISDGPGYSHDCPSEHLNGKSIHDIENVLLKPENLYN
T1 sequence (O60894 27-148, chain 2 of 2): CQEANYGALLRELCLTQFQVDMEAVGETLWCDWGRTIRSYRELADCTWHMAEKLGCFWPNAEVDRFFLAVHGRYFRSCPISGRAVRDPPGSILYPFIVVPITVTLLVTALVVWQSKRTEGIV

Row | Binder | Ki [nM]
1 | B1 | 33.3
2 | B2 | 33.4
3 | B3 | 54.8
4 | B4 | 315
5 | B5 | 49.6
6 | B6 | 63.7
7 | YVPTAVGPFAF-NH2 (also called conventional CGRP 27-37) [CGRP 27-37] | 697
